Residues, ends and D or L forms follow the SMILES beside them. *: point of attachment. Butanoyl(4-pyren-1-yl) = O=C(CCCc1ccc2ccc3cccc4ccc1c2c34)*
Experiments:
HSA [1] = target: T1, HSA (Homo sapiens, UniProt P02768); test: Steady-state fluorescence titration with HSA (binding constant Kb); conditions: Py-LYQLENY 3 µM in buffer, fluorescence intensity as function of HSA concentration (plateau at 45 µM), Equation (3)
T1 construct: purchased Sigma-Aldrich
Description: The prepared samples were used within 24 h.
Steady-state absorption and fluorescence spectra were recorded at a resolution of 0.5 nm using an Aminco Bowman AB2 Series spectrofluorometer (Thermo Fisher Scientific Inc., Waltham, MA, USA). Unless otherwise indicated, in emission measurements, the excitation wavelength was 337 nm, and excitation and emission slits were set to 2.0 and 0.5 nm, respectively.
For Py-LYQLENY conjugate (2), the binding constants Kb were calculated according to Equation (3) proposed by Kuzmin et al.:θ = Kb·[HSA] / (1+ Kb·[HSA])(3) where [HSA] is the concentration of the albumin [61], θ = (I − I0)/(I∞ − I0) is the fraction of the pyrene probe bound with HSA, I0 is fluorescence intensity without HSA, I∞ is fluorescence intensity with [HSA] = 45 µM (reaching a plateau, Figure 6b) and I is the fluorescence intensity for subsequent […].
The calculated value also confirmed existence of interactions between 2 and HSA with pyrene fragment presented on less polar environment inside protein. […] The binding constants 1.5 ± 0.3 × 10^6 dm^3 mol^−1 to 6.5 ± 0.4 × 10^7 dm^3 mol^−1 were calculated for complexes of HSA with Py-hydrophobic peptide.

[2] = Solubility and aggregation of pyrene-labeled peptides seen by absorption and fluorescence; conditions: for solubility in ethanol and methanol: judged from narrow absorption bands
Description: The solutions of HSA (concentration = 3 10^−5 M) were prepared by dissolving the protein in 0.01 M of phosphate buffer saline (PBS, [NaCl] = 150 mM), pH = 7.2. […] The prepared samples were used within 24 h. […] The concentration of HSA was verified spectrophotometrically using the molar absorption coefficient 35500 M^−1cm^−1 at 280 nm for HSA [61]. In order to ensure complete protein hydration, the solutions were stored at room temperature for at least 1 h before measurements. The samples for fluorescence measurements were saturated with argon or deaerated with a vacuum pump.
The absorbances of Py-LYQLENY and Py-VEALYL were determined in 10 mM standard PBS solution, ethanol, methanol, and 10 mM TX-100. The spectra were normalized to a maximum of S0→S2 […]
band (Figure 4, panel I).
(1 picture or pasted object on this page, not shown here)
Fig. S7. Panel I: Normalized absorption spectra of Py-LYQLENY (a) and Py-VEALYL (b) in different solvents. Panel II: Normalized emission spectra of Py-LYQLENY (a) and Py-VEALYL (b) in different […]
We also investigated the solubility of Py-LYQLENY conjugate (2) in dioxane.
This allowed the molar coefficient absorbance to be determined, using the gravimetric […]
The addition of a small amount of concentrated
Py-LYQLENY stock solution in dioxane to the buffer solution enabled the molar absorbance coefficient […]
In order to investigate the possible aggregation of the fluorescence labeled insulin hot spots in the buffer solution, spectrophotometric titration was performed for Py -LYQLENY (2) in a range of concentration from 2.9 to 56.4 µM. Titration was carried out until there were no significant changes in fluorescence intensity.
The fluorescence spectra were recorded for each concentration (Figure 5a). After normalization of the […]
Fig. S8. Fluorescence spectra of Py-LYQLENY in PBS solutions recorded for the given probe

[3] = Time-resolved fluorescence decay of the pyrene label in buffer or TX-100 (no protein); assay type: physicochemical; conditions: λexc 337 nm; for <τ> average fluorescence lifetime / A1 (amplitude of fast component, aggregate fraction) / A2 (amplitude of slow component, monomer) / τ1 (fast component, aggregate form) / τ2 (slow component, monomer form): [Py-Ins] 16.38 μM, λem 405 nm; for <τ> average fluorescence lifetime: Equation (2); for A1 (amplitude of fast component, aggregate fraction) / A2 (amplitude of slow component, monomer) / τ1 (fast component, aggregate form) / τ2 (slow component, monomer form): bi-exponential fit
HSA [4] = target: T1, HSA; test: Time-resolved fluorescence decay of the pyrene label in the presence of HSA; assay type: binding; conditions: for <τ> average fluorescence lifetime / A1 (amplitude of fast component, aggregate fraction) / A2 (amplitude of slow component, monomer) / τ1 (fast component, aggregate form) / τ2 (slow component, monomer form): 30 μM HSA in PBS, [Py-Ins] 16.38 μM, λem 405 nm; for <τ> average fluorescence lifetime: Equation (2); for A1 (amplitude of fast component, aggregate fraction) / A2 (amplitude of slow component, monomer) / τ1 (fast component, aggregate form) / τ2 (slow component, monomer form): bi-exponential fit
Description: The solutions of HSA (concentration = 3 10^−5 M) were prepared by dissolving the protein in 0.01 M of phosphate buffer saline (PBS, [NaCl] = 150 mM), pH = 7.2. […] The prepared samples were used within 24 h. […] In order to ensure complete protein hydration, the solutions were stored at room temperature for at least 1 h before measurements. The samples for fluorescence measurements were saturated with argon or deaerated with a vacuum pump.
Time-resolved measurements of HSA fluorescence were performed using a flash photolysis system based on a GL-3300 nitrogen laser (Photon Technology International, Birmingham, NJ, USA) providing single light pulses with a wavelength of 337.1 nm, duration ~800 ps, and average energy 100 µJ. The detection system consisted of a Baush&Lomb monochromator (Rochester, NY, USA), Hamamatsu 1P28 photomultiplier, and a PS325 power supply system (Stanford Research, Sunnyvale, CA, USA). […] All experiments were carried out at room temperature (25 ± 1 °C) using quartz cells with an optical length of 1 cm.

HSA [5] = target: T1, HSA; test: Quenching of pyrene fluorescence by acrylamide (Stern-Volmer) in buffer and HSA solution; assay type: binding; conditions: [HSA] 30 µM, Stern-Volmer plots
Description: Additionally, we examined the quenching of Py-LYQLENY and Py-VEALYL by acrylamide (ACR) in the buffer solution and HSA solution (Figure 5 Stern-Volmer plots).
Figure 5 Stern–Volmer plots for quenching of Py-LYQLENY and Py-VEALYL by ACR in the buffer and HSA solution. I0 is fluorescence intensity without quencher, I—fluorescence intensity at various concentrations of ACR, [HSA] = 30 µM.

[6] = Absorption spectra of the filtered HSA/Py-Ins complex on storage; assay type: physicochemical; conditions: [Py-Ins] 16.38 μM, [HSA] 30 μM, filtered through 0.2 µm syringe filter, spectra after 2, 4 and 6 days
Description: Broad absorption bands can indicate the presence of Py-Ins aggregates. Therefore, a solution of Py-Ins (1) complex with HSA was filtered through a 0.2 µm syringe filter in order to remove any Py-Ins aggregates, and the stability of the complex was tested for a further 6 days. […] This may indicate that the Py-Ins (1) conjugate was completely bound to the HSA, and that the protein has a protective role in the aggregation process. Additional confirmation of this was provided by the observed linear increase in Py-Ins absorbance for the samples diluted with 30 µM HSA solution (Figure 2, panel IIb).

Molecule: CC(C)C[C@H](NC(=O)CCCc1ccc2ccc3cccc4ccc1c2c34)C(=O)N[C@@H](Cc1ccc(O)cc1)C(=O)N[C@@H](CCC(N)=O)C(=O)N[C@@H](CC(C)C)C(=O)N[C@@H](CCC(=O)O)C(=O)N[C@@H](CC(N)=O)C(=O)N[C@@H](Cc1ccc(O)cc1)C(=O)O [Py-LYQLENY, Py-LYQLENY-OH] ({Butanoyl(4-pyren-1-yl)}-LYQLENY-OH)
- binding constant Kb (HSA [1]): 2 × 10^5 dm^3 mol^−1
- solubility in aqua media in the presence of HSA [2]: increased significantly
- solubility in dioxane [2]: dissolved relatively well
- solubility in the buffer solution compared with dioxane ([2]; PBS): lower
- solubility in ethanol and methanol [2]: good

Molecule: CC(C)C[C@H](NC(=O)[C@H](Cc1ccc(O)cc1)NC(=O)[C@H](CC(C)C)NC(=O)[C@H](C)NC(=O)[C@H](CCC(=O)O)NC(=O)[C@@H](NC(=O)CCCc1ccc2ccc3cccc4ccc1c2c34)C(C)C)C(=O)O [Py-VEALYL, Py-VEALYL-OH] ({Butanoyl(4-pyren-1-yl)}-VEALYL-OH)
- τPBS, lifetime of fluorescence decay in PBS ([3]; PBS, mono-exponential kinetics, λem 400 nm, short lifetime taken as sign of aggregation): 43.9 ns
- τHSA, lifetime of fluorescence decay in the presence of HSA (HSA [4]; [HSA] 30 μM, bi-exponential kinetics, average lifetime by Equation (2), λexc 337 nm, λem 400 nm): 153.9 ns
- quenching by acrylamide in the presence of HSA versus buffer (slope of I0/I vs. ACR concentration) (HSA [5]): protected against interaction with the quencher
- solubility in aqua media in the presence of HSA [2]: increased significantly
- aggregation in buffer solution ([2]; 0.01 M PBS, 150 mM NaCl, pH 7.2): partial aggregation
- solubility in ethanol and methanol [2]: good

Molecule: Py-Ins: derivative of human insulin labeled with 4-(1-pyrene)butyric acid
- stability of the HSA complex / aggregation: changes of absorption spectra on storage [6]: no changes were observed
- <τ> average fluorescence lifetime ([3]; 20 mM TX-100, filtered): 161.2 ns
- A1 (amplitude of fast component, aggregate fraction) ([3]; 20 mM TX-100, filtered): 0.1
- A2 (amplitude of slow component, monomer) ([3]; 20 mM TX-100, filtered): 0.9
- τ1 (fast component, aggregate form) ([3]; 20 mM TX-100, filtered): 18.2 ns
- τ2 (slow component, monomer form) ([3]; 20 mM TX-100, filtered): 162.0 ns
- <τ> average fluorescence lifetime ([3]; 20 mM TX-100, non-filtered): 147.9 ns
- A1 (amplitude of fast component, aggregate fraction) ([3]; 20 mM TX-100, non-filtered): 0.2
- A2 (amplitude of slow component, monomer) ([3]; 20 mM TX-100, non-filtered): 0.8
- τ2 (slow component, monomer form) ([3]; 20 mM TX-100, non-filtered): 152.7 ns
- A1 (amplitude of fast component, aggregate fraction) ([3]; PBS buffer, filtered): 0.2
- A2 (amplitude of slow component, monomer) ([3]; PBS buffer, filtered): 0.8
- τ1 (fast component, aggregate form) ([3]; PBS buffer, filtered): 20.1 ns
- τ2 (slow component, monomer form) ([3]; PBS buffer, filtered): 98.8 ns
- <τ> average fluorescence lifetime ([3]; PBS buffer, non-filtered): 86.6 ns
- A1 (amplitude of fast component, aggregate fraction) ([3]; PBS buffer, non-filtered): 0.5
- A2 (amplitude of slow component, monomer) ([3]; PBS buffer, non-filtered): 0.5
- τ2 (slow component, monomer form) ([3]; PBS buffer, non-filtered): 98.4 ns
- <τ> average fluorescence lifetime (HSA [4]; filtered, λexc 337 nm): 145.6 ns
- A1 (amplitude of fast component, aggregate fraction) (HSA [4]; filtered, λexc 337 nm): 0.2
- A2 (amplitude of slow component, monomer) (HSA [4]; filtered, λexc 337 nm): 0.8
- τ1 (fast component, aggregate form) (HSA [4]; filtered, λexc 337 nm): 19.4 ns
- τ2 (slow component, monomer form) (HSA [4]; filtered, λexc 337 nm): 150.4 ns
- <τ> average fluorescence lifetime (HSA [4]; non-filtered, λexc 337 nm): 133.6 ns
- A1 (amplitude of fast component, aggregate fraction) (HSA [4]; non-filtered, λexc 337 nm): 0.4
- A2 (amplitude of slow component, monomer) (HSA [4]; non-filtered, λexc 337 nm): 0.6
- τ1 (fast component, aggregate form) (HSA [4]; non-filtered, λexc 337 nm): 19.1 ns
- τ2 (slow component, monomer form) (HSA [4]; non-filtered, λexc 337 nm): 143.8 ns
- aggregate fraction (HSA [4]; diluted Py-Ins/HSA solutions, [Py-Ins]/[HSA] = 0.11, data not shown): about 20%
